* marks the point of attachment. Biotin = O=C1N[C@H]2[C@H](CS[C@H]2CCCCC(=O)*)N1
How the values were obtained:
Assay in all cases: SRU BIND reader, peptides captured on streptavidin biosensor plate
[1] = target: T1, artificial myostatin linear peptide 37 (cysteine pairing not given here)
T1 construct: also called Peptide No 37
T1 peptide: Biotin-SGSGCCTPTKMSPINMLY-NH2
Protocol: (§1) Work was carried out on an SRU BIND reader (SRU Biosystems). A streptavidin biosensor plate was washed, a baseline reading taken, and biotinylated peptides captured onto the streptavidin coated biosensor plate. The plate was washed again, and a new baseline reading taken, antibody was then added and binding monitored.

[2] = target: T2, artificial myostatin linear peptide 35 (cysteine pairing not given here)
T2 construct: also called Peptide No 35
T2 peptide: Biotin-SGSGSAGPCCTPTKMSPI-NH2
Protocol: as §1

[3] = target: T3, artificial myostatin linear peptide 17 (SMILES …)
T3 construct: also called Peptide No 17
T3 peptide: Biotin-SGSGIAPKRYKANYCSGE-NH2
Protocol: as §1

[4] = target: T4, artificial myostatin linear peptide 19 (cysteine pairing not given here)
T4 construct: also called Peptide No 19
T4 peptide: Biotin-SGSGRYKANYCSGECEFV-NH2
Protocol: as §1

[5] = target: T5, artificial myostatin linear peptide 11 (SMILES …)
T5 construct: also called Peptide No 11
T5 peptide: Biotin-SGSGTVDFEAFGWDWIIA-NH2
Protocol: as §1

[6] = target: T6, artificial myostatin linear peptide 43 (SMILES …)
T6 construct: also called Peptide No 43
T6 peptide: Biotin-SGSGLYFNGKEQIIYGKI-NH2
Protocol: as §1

[7] = target: T7, artificial myostatin linear peptide 45 (SMILES …)
T7 construct: also called Peptide No 45
T7 peptide: Biotin-SGSGGKEQIIYGKIPAMV-NH2
Protocol: as §1

[8] = target: T8, artificial myostatin linear peptide 25 (SMILES …)
T8 construct: also called Peptide No 25
T8 peptide: Biotin-SGSGFVFLQKYPHTHLVH-NH2
Protocol: as §1

[9] = target: T9, artificial myostatin linear peptide 33 (cysteine pairing not given here)
T9 construct: also called Peptide No 33
T9 peptide: Biotin-SGSGNPRGSAGPCCTPTK-NH2
Protocol: as §1

[10] = target: T10, artificial myostatin linear peptide 49 (cysteine pairing not given here)
T10 construct: also called Peptide No 49
T10 peptide: Biotin-SGSGGKIPAMVVDRCGCS-OH
Protocol: as §1

[11] = target: T11, artificial myostatin linear peptide 47 (SMILES …)
T11 construct: also called Peptide No 47
T11 peptide: Biotin-SGSGIIYGKIPAMVVDRC-NH2
Protocol: as §1

[12] = target: T12, artificial myostatin linear peptide 21 (cysteine pairing not given here)
T12 construct: also called Peptide No 21
T12 peptide: Biotin-SGSGNYCSGECEFVFLQK-NH2
Protocol: as §1

[13] = target: T13, artificial myostatin linear peptide 23 (SMILES …)
T13 construct: also called Peptide No 23
T13 peptide: Biotin-SGSGGECEFVFLQKYPHT-NH2
Protocol: as §1

[14] = target: T14, artificial myostatin linear peptide 5 (cysteine pairing not given here)
T14 construct: also called Peptide No 5
T14 peptide: Biotin-SGSGHSTESRCCRYPLTV-NH2
Protocol: as §1

[15] = target: T15, artificial myostatin linear peptide 27 (SMILES …)
T15 construct: also called Peptide No 27
T15 peptide: Biotin-SGSGQKYPHTHLVHQANP-NH2
Protocol: as §1

[16] = target: T16, artificial myostatin linear peptide 13 (SMILES …)
T16 construct: also called Peptide No 13
T16 peptide: Biotin-SGSGEAFGWDWIIAPKRY-NH2
Protocol: as §1

[17] = target: T17, artificial myostatin linear peptide 41 (SMILES …)
T17 construct: also called Peptide No 41
T17 peptide: Biotin-SGSGPINMLYFNGKEQII-NH2
Protocol: as §1

[18] = target: T18, artificial myostatin linear peptide 15 (SMILES …)
T18 construct: also called Peptide No 15
T18 peptide: Biotin-SGSGWDWIIAPKRYKANY-NH2
Protocol: as §1

[19] = target: T19, artificial myostatin linear peptide 7 (cysteine pairing not given here)
T19 construct: also called Peptide No 7
T19 peptide: Biotin-SGSGSRCCRYPLTVDFEA-NH2
Protocol: as §1

[20] = target: T20, artificial myostatin linear peptide 29 (SMILES …)
T20 construct: also called Peptide No 29
T20 peptide: Biotin-SGSGHTHLVHQANPRGSA-NH2
Protocol: as §1

[21] = target: T21, artificial myostatin linear peptide 1 (not fully specified)
T21 construct: also called Peptide No 1
T21 peptide: H-DFGLDCDEHSTESRGSG-NH2
Protocol: as §1

[22] = target: T22, artificial myostatin linear peptide 3 (cysteine pairing not given here)
T22 construct: also called Peptide No 3
T22 peptide: Biotin-SGSGDCDEHSTESRCCRY-NH2
Protocol: as §1

[23] = target: T23, artificial myostatin linear peptide 9 (SMILES …)
T23 construct: also called Peptide No 9
T23 peptide: Biotin-SGSGRYPLTVDFEAFGWD-NH2
Protocol: as §1

[24] = target: T24, artificial myostatin linear peptide 31 (cysteine pairing not given here)
T24 construct: also called Peptide No 31
T24 peptide: Biotin-SGSGVHQANPRGSAGPCC-NH2
Protocol: as §1

Measured: binding result

B1: mouse monoclonal antibody 10B3 (antibody, V domains shown)
VH: EVQLQQSGPELVKPGASVKISCKASGYSFTGYFMHWVKQSHGNILDWIGNIYPYNGVSNYNQRFKAKATLTVDKSSSTAYMELRSLTSEDSAVYYCARRYYYGTGPADWYFDVWGTGTTVTVSS
VL: DIKMTQSPSSMYASLRERVTITCKASQDINSYLSWFQQKPGKSPKTLIYRANRLVDGVPSRFSGSGSGQDYSLTISSLEYEDMGIYYCLQCDEFPLTFGAGTKLELK
notes: Mouse IgG2a/kappa from hybridoma; also called 10B3 mouse parental; 10B3 parental
no binding: all assays above

From patent US20110256132A1 (published 2011)
